The assay has as its target T1, HIV-1 envelope glycoprotein Env_(JR-CSF) on intact virions (HIV-1 group M subtype B, isolate JR-CSF, UniProt P20871).
T1 construct: also called JR-CSF Env-WT; JR-CSF virions; source: 293T cells transfected with the Env(-) pCHIV plasmid and the full-length JR-CSF Env clone; on pseudovirions purified by ultracentrifugation through a 20% sucrose cushion
As to the kind of experiment: STED microscopy of fluorescent Fab on single virions. The following applies: one partner purified.

B1: Fab 10E8 3R conjugated with KK114 (Fab, V domains shown)
VH: EVQLVESGGGLVKPGGSLRLSCSASGFDFDNAWMTWVRQPPGKGLEWVGRITGPGEGWSVDYAAPVEGRFTISRLNSINFLYLEMNNLRMEDSGLYFCARTGKYYDFWSGYPPGEEYFQDWGRGTLVTVSS
VL: SYELTQETGVSVALGRTVTITCRGDSLRRHYASWYQKKPGQAPILLFYGKRNRPSGVPDRFSGSARGNRASLTISGAQAEDDAEYYCSSRDKSGSRLSVFGGGTKLTVL
notes: also called 3R mutant
Consider B1, for which the binding result is reported as “binds”.

B2: Fab 10E8 3R-WG conjugated with KK114 (Fab, V domains shown)
VH: EVQLVESGGGLVKPGGSLRLSCSASGFDFDNAWMTWVRQPPGKGLEWVGRITGPGEGWSVDYAAPVEGRFTISRLNSINFLYLEMNNLRMEDSGLYFCARTGKYYDFGSGYPPGEEYFQDWGRGTLVTVSS
VL: SYELTQETGVSVALGRTVTITCRGDSLRRHYASWYQKKPGQAPILLFYGKRNRPSGVPDRFSGSARGNRASLTISGAQAEDDAEYYCSSRDKSGSRLSVFGGGTKLTVL
notes: also called 3R/WG mutant
B2: the binding result is listed as “binds”.

(Values after publication PMC6325134 (Nature Communications, 2019).)
